These results are taken from the RNAGym collection of RNA variant scans (doi:10.7554/elife.80360).

B1: HDV Ribozyme (parent)
chain: GGCCGGCAUGGUCCCAGCCUCCUCGCUGGCGCCGGCUGGGCAACAUUCCGAGGGGACCGUCCCCUCGGUAAUGGCGAAUGGGACCCA

This data set covers variants of B1. Put plainly: self-cleavage, relative activity (ratio to wild type); higher = more cleavage; co-transcriptional.
Turning to GGCCGGCAUGGUCCCAGCAUCCUCGCUGGCGCCGGCUGGGCAACAUUCCGAGGGGACCGUCCCCUCGGUAAUGGCGAAAGGGACCCA, the self-cleavage is 0.0773.

On to GGCCGGCAUGGUCCCAGCGUCCUCGCUGGCGCCGGCUGGGCAACAUUCCGAGGGGACCGUCCCCUCGGUAAUGGCGAAUGGGAACCA, for which the self-cleavage is 0.0898. Regarding GGCCGGCAUGGUCCCAGCGUCCUCGCUGGCUCCGGCUGGGCAACAUUCCGAGGGGACCGUCCCCUCGGUAAUGGCGAAUGGGACCCA, the self-cleavage is 0.0723. For the variant GGCCGGCAUGGUCCCAGCGUCCUCGCUGGCGCCGGCUGGGCAACAUUCCGAGGGGACCGUCCCCUUGGUAAUGGCGAAUGGGACCCA, the self-cleavage came out at 0.0639. Regarding GGCCGGCAUGGUCCCAGCGUCCUCGCUGGCGCCGGCAGGGCAACAUUCCGAGGGGACCGUCCCCUCGGUAAUGGCGAAUGGGACCCA, the self-cleavage was determined as 0.0627. Then GGCCGGCAUGGUCCCAGCGUCCUCGCUGGCGCCGGCUGGGCAACAUUCCGAGGGGACCGUCCCCUCGGUAAUAGCGAAUGGGACCCA, with 0.021; and GGCCGGCAUGGUCCCAGCGUCCUCGCUGGCGCCGACUGGGCAACAUUCCGAGGGGACCGUCCCCUCGGUAAUGGCGAAUGGGACCCA, with 0.0297; and GGCCGGCAUGGUCCCAGCGUCCUCGCUGGCGCCGGCUGGGCAACAUUCCGAGGGGACCGUCCCCUCGAUAAUGGCGAAUGGGACCCA, with 0.021. Then GGCCGGCAUGGUCCCAGCAUCCUCGCUGGCGCCGGCCGGGCAACAUUCCGAGGGGACCGUCCCCUCGGUAAUGGCGAAUGGGACCCA, with 0.0845; and GGCCGGCAUGGUCCCAGCUUCCUCGCUGGCGCCGGCUGGGCAACCUUCCGAGGGGACCGUCCCCUCGGUAAUGGCGAAUGGGACCCA, with 0.0767. Then GGCCGGCAUGGUCCCAGCGUCCUCGCUGGCGCCGGCUGCGCAACAUUCCGAGGGGACCGUCCCCUCGGUAAUGGCGAAUGGGACCCA, with 0.0978; and GGCCGGCAUGGUCCCAGCGUCCUCGCUGGCGCCGGCUGGGCAACAUUCCGAGGGGACCGUCCCCUCGGUAAUGGCGAAUGGCACCCA, with 0.0594. For the variant GGCCGGCAUGGUCCCAGCGUCCUCGCUGGCGCCGGCUGGGCAACAUUCCGAGGGGACCGUCCCCUCGGGAAUGGCGAAUGGGACCCA, the self-cleavage came out at 0.102. Turning to GGCCGGCAUGGUCCCAGCGUCCUCGCUGGCGCCGGCUGGGCAGCAUUCCGAGGGGACCGUCCCCUCGGUAAUGGCGAAUGGGACCCA, the self-cleavage turned out to be 0.155. Take GGCCGGCAUGGUCCCAGCUUCCUCGCUGGCGCCGGCUGGGCCACAUUCCGAGGGGACCGUCCCCUCGGUAAUGGCGAAUGGGACCCA: the self-cleavage stood at 0.104. In the case of GGCCGGCAUGGUCCCAGCUUCCUCGCUGGCGCCGGCUGGGCGACAUUCCGAGGGGACCGUCCCCUCGGUAAUGGCGAAUGGGACCCA, the self-cleavage is 0.

Consider GGCCGGCAUGGUCCCAGCGUCCUCGCUGGCGCCGGCUGGGCAACAUUCCGAGGGGACCGUCCCCUCGGUAAUGGCGAAUGGGGCCCA, for which the self-cleavage was determined as 0.0678. Then GGCCGGCAUGGUCCCAGCUUCCUCGCUGGCGCCGGCUGGGCAGCAUUCCGAGGGGACCGUCCCCUCGGUAAUGGCGAAUGGGACCCA, with 0.0545; and GGCCGGCAUGGUCCCAGCAUCCGCGCUGGCGCCGGCUGGGCAACAUUCCGAGGGGACCGUCCCCUCGGUAAUGGCGAAUGGGACCCA, with 0.0923. Take GGCCGGCAUGGUCCCAGCAUCCCCGCUGGCGCCGGCUGGGCAACAUUCCGAGGGGACCGUCCCCUCGGUAAUGGCGAAUGGGACCCA: the self-cleavage amounted to 0.0519. Take GGCCGGCAUGGUCCCAGCGUCCUCGCUGGCGCCGGCUGGGCAACAUUCCGAGGGGACCGUCCUCUCGGUAAUGGCGAAUGGGACCCA: the self-cleavage stood at 0.0978. For GGCCGGCAUGGUCCCAGCGUCCUCGAUGGCGCCGGCUGGGCAACAUUCCGAGGGGACCGUCCCCUCGGUAAUGGCGAAUGGGACCCA, the self-cleavage worked out at 0.104. Turning to GGCCGGCAUGGUCCCAGCGUCCUCGGUGGCGCCGGCUGGGCAACAUUCCGAGGGGACCGUCCCCUCGGUAAUGGCGAAUGGGACCCA, the self-cleavage stood at 0. As for GGCCGGCAUGGUCCCAGCGUCCUCGCUGGCGCCGGAUGGGCAACAUUCCGAGGGGACCGUCCCCUCGGUAAUGGCGAAUGGGACCCA, the self-cleavage worked out at 0.0277. Next, GGCCGGCAUGGUCCCAGCUUCCUCGCUGGCGCCGGCUGGGCAACAUUCCGUGGGGACCGUCCCCUCGGUAAUGGCGAAUGGGACCCA: 0.0923; GGCCGGCAUGGUCCCAGCAUCCUCGCCGGCGCCGGCUGGGCAACAUUCCGAGGGGACCGUCCCCUCGGUAAUGGCGAAUGGGACCCA: 0.0536; GGCCGGCAUGGUCCCAGCAUCCUCGCAGGCGCCGGCUGGGCAACAUUCCGAGGGGACCGUCCCCUCGGUAAUGGCGAAUGGGACCCA: 0.312. As for GGCCGGCAUGGUCCCAGCGUCCUCGCUGGCGCCGGCUGGGCAACAUUCCGAGGGGACCGUCCCCUCGGUAAUGACGAAUGGGACCCA, the self-cleavage is 0.161. On to GGCCGGCAUGGUCCCAGCGUCCUCGCUGGCGCCGGCUGGGCAACAUUCCGAGGGGACCGUCCCCUCGGUAAUGGCGAUUGGGACCCA, for which the self-cleavage was 0.0773.

Take GGCCGGCAUGGUCCCAGCAUCCUCGCUGGCGCCGGCUGGGCAACAUUCCGAGGGGACCGUCCCCUCGGUAAUGGCGAAUUGGACCCA: the self-cleavage turned out to be 0.0513. Then GGCCGGCAUGGUCCCAGCGUCCUCGCUGGCGCCGGCUAGGCAACAUUCCGAGGGGACCGUCCCCUCGGUAAUGGCGAAUGGGACCCA, with 0.0511; and GGCCGGCAUGGUCCCAGCAUCCUCGCUGGCGCCGGCUGGGCAACAUUCCGAGGGGACCGUCCCCUCGGUAAUGGCGAAUGAGACCCA, with 0.0449.
